Data reported in the Human Domainome abundance scans (Beltran et al. 2025).
± gives the uncertainty stated by the source.

B1: Integrator complex subunit 12, residues 155 to 213; numbered along this chain, Q96CB8 (parent)
chain: AMEMGLACVVCRQMMVASGNQLVECQECHNLYHRDCHKPQVTDKEANDPRLVWYCARCT

Variants of: B1
Experiment: abundance fitness (aPCA) (normalised: wild type 0, dead -1); higher = more abundant; growth selection in yeast, the domain comes from the species named
Settings: Homo sapiens

AMEMGLACVVCRQMMVASGNQLVECQECHNLYHRDCHKPQVTDKEANDPRFVWYCARCT [L51F] and AMEMGLACVVCRQMMVASGNQLVECQECHNLYHRDCHKPQVTDKEANDPRYVWYCARCT [L51Y] are within error of each other in abundance fitness: -0.048 ± 0.081 for the first, -0.169 ± 0.071 for the second.

AMEMGLACVVCRQMMVASGNQLVECQECHNLYHRDCHKPQVTDKEANDPRVVWYCARCT [L51V] and AMEMGLACVVCRQMMVASGNQLVECQECHNLYHRDCHKPQVTDKEANDPRSVWYCARCT [L51S] are within error of each other in abundance fitness: -0.003 ± 0.052 for the first, 0.049 ± 0.051 for the second.

AMEMGLACVVCRQMMVASGNQLVECQECHNLYHRDCHKPQVTDKEANDPRQVWYCARCT [L51Q] and AMEMGLACVVCRQMMVASGNQLVECQECHNLYHRDCHKPQVTDKEANDPREVWYCARCT [L51E] are within error of each other in abundance fitness: 0.02 ± 0.055 for the first, 0.056 ± 0.06 for the second.

AMEMGLACVVCRQMMVASGNQLVECQECHNLYHRDCHKPQVTDKEANDPRNVWYCARCT [L51N] and AMEMGLACVVCRQMMVASGNQLVECQECHNLYHRDCHKPQVTDKEANDPRWVWYCARCT [L51W] are within error of each other in abundance fitness: -0.197 ± 0.077 for the first, -0.108 ± 0.059 for the second.

AMEMGLACVVCRQMMVASGNQLVECQECHNLYHRDCHKPQVTDKEANDPRDVWYCARCT [L51D] and AMEMGLACVVCRQMMVASGNQLVECQECHNLYHRDCHKPQVTDKEANDPRHVWYCARCT [L51H] are within error of each other in abundance fitness: 0.013 ± 0.066 for the first, 0.063 ± 0.11 for the second.

Going from AMEMGLACVVCRQMMVASGNQLVECQECHNLYHRDCHKPQVTDKEANDPRGVWYCARCT [L51G] to AMEMGLACVVCRQMMVASGNQLVECQECHNLYHRDCHKPQVTDKEANDPRIVWYCARCT [L51I], the abundance fitness falls from 0.069 ± 0.046 to -0.282 ± 0.08.

AMEMGLACVVCRQMMVASGNQLVECQECHNLYHRDCHKPQVTDKEANDPRAVWYCARCT [L51A] and AMEMGLACVVCRQMMVASGNQLVECQECHNLYHRDCHKPQVTDKEANDPRRVWYCARCT [L51R] are within error of each other in abundance fitness: 0.042 ± 0.054 for the first, 0.062 ± 0.04 for the second.

AMEMGLACVVCRQMMVASGNQLVECQECHNLYHRDCHKPQVTDKEANDPRKVWYCARCT [L51K] and AMEMGLACVVCRQMMVASGNQLVECQECHNLYHRDCHKPQVTDKEANDPRPVWYCARCT [L51P] are within error of each other in abundance fitness: 0.089 ± 0.063 for the first, 0.035 ± 0.06 for the second.

AMEMGLACVVCRQMMVASGNQLVECQECHNLYHRDCHKPQVTDKEANDPRTVWYCARCT [L51T] and AMEMGLACVVCRQMMVASGNQLVECQECHNLYHRDCHKPQVTDKEANDKRLVWYCARCT [P49K] are within error of each other in abundance fitness: 0.037 ± 0.07 for the first, 0.001 ± 0.072 for the second.

AMEMGLACVVCRQMMVASGNQLVECQECHNLYHRDCHKPQVTDKEANDHRLVWYCARCT [P49H] and AMEMGLACVVCRQMMVASGNQLVECQECHNLYHRDCHKPQVTDKEANDLRLVWYCARCT [P49L] are within error of each other in abundance fitness: -0.132 ± 0.17 for the first, -0.101 ± 0.048 for the second.

AMEMGLACVVCRQMMVASGNQLVECQECHNLYHRDCHKPQVTDKEANDGRLVWYCARCT [P49G] and AMEMGLACVVCRQMMVASGNQLVECQECHNLYHRDCHKPQVTDKEANDIRLVWYCARCT [P49I] are within error of each other in abundance fitness: 0.062 ± 0.044 for the first, 0.002 ± 0.14 for the second.

AMEMGLACVVCRQMMVASGNQLVECQECHNLYHRDCHKPQVTDKEANDNRLVWYCARCT [P49N] and AMEMGLACVVCRQMMVASGNQLVECQECHNLYHRDCHKPQVTDKEANDSRLVWYCARCT [P49S] are within error of each other in abundance fitness: -0.17 ± 0.12 for the first, -0.007 ± 0.053 for the second.

First: AMEMGLACVVCRQMMVASGNQLVECQECHNLYHRDCHKPQVTDKEANDYRLVWYCARCT [P49Y]
Second: AMEMGLACVVCRQMMVASGNQLVECQECHNLYHRDCHKPQVTDKEANDRRLVWYCARCT [P49R]
The abundance fitness of the first is lower: -0.258 ± 0.1 for the first, -0.022 ± 0.041 for the second.

Compared with AMEMGLACVVCRQMMVASGNQLVECQECHNLYHRDCHKPQVTDKEANDARLVWYCARCT [P49A], AMEMGLACVVCRQMMVASGNQLVECQECHNLYHRDCHKPQVTDKEANDFRLVWYCARCT [P49F] is lower in abundance fitness: -0.046 ± 0.049 for the first, -0.333 ± 0.14 for the second.

First: AMEMGLACVVCRQMMVASGNQLVECQECHNLYHRDCHKPQVTDKEANDERLVWYCARCT [P49E]
Second: AMEMGLACVVCRQMMVASGNQLVECQECHNLYHRDCHKPQVTDKEANDCRLVWYCARCT [P49C]
The abundance fitness of the first is higher: 0.027 ± 0.05 for the first, -0.318 ± 0.077 for the second.

AMEMGLACVVCRQMMVASGNQLVECQECHNLYHRDCHKPQVTDKEANDMRLVWYCARCT [P49M] and AMEMGLACVVCRQMMVASGNQLVECQECHNLYHRDCHKPQVTDKEANDVRLVWYCARCT [P49V] are within error of each other in abundance fitness: -0.06 ± 0.069 for the first, -0.082 ± 0.044 for the second.

AMEMGLACVVCRQMMVASGNQLVECQECHNLYHRDCHKPQVTDKEANDTRLVWYCARCT [P49T] and AMEMGLACVVCRQMMVASGNQLVECQECHNLYHRDCHKPQVTDKEANDDRLVWYCARCT [P49D] are within error of each other in abundance fitness: 0.023 ± 0.073 for the first, 0.026 ± 0.079 for the second.

AMEMGLACVVCRQMMVASGNQLVECQECHNLYHRDCHKPQVTDKEANMPRLVWYCARCT [D48M] and AMEMGLACVVCRQMMVASGNQLVECQECHNLYHRDCHKPQVTDKEANVPRLVWYCARCT [D48V] are within error of each other in abundance fitness: -0.085 ± 0.071 for the first, -0.063 ± 0.057 for the second.

AMEMGLACVVCRQMMVASGNQLVECQECHNLYHRDCHKPQVTDKEANSPRLVWYCARCT [D48S] and AMEMGLACVVCRQMMVASGNQLVECQECHNLYHRDCHKPQVTDKEANNPRLVWYCARCT [D48N] are within error of each other in abundance fitness: -0.119 ± 0.062 for the first, -0.128 ± 0.069 for the second.

AMEMGLACVVCRQMMVASGNQLVECQECHNLYHRDCHKPQVTDKEANYPRLVWYCARCT [D48Y] and AMEMGLACVVCRQMMVASGNQLVECQECHNLYHRDCHKPQVTDKEANWPRLVWYCARCT [D48W] are within error of each other in abundance fitness: -0.178 ± 0.084 for the first, -0.149 ± 0.069 for the second.

AMEMGLACVVCRQMMVASGNQLVECQECHNLYHRDCHKPQVTDKEANQPRLVWYCARCT [D48Q] and AMEMGLACVVCRQMMVASGNQLVECQECHNLYHRDCHKPQVTDKEANTPRLVWYCARCT [D48T] are within error of each other in abundance fitness: -0.002 ± 0.063 for the first, 0.016 ± 0.063 for the second.

AMEMGLACVVCRQMMVASGNQLVECQECHNLYHRDCHKPQVTDKEANRPRLVWYCARCT [D48R] and AMEMGLACVVCRQMMVASGNQLVECQECHNLYHRDCHKPQVTDKEANPPRLVWYCARCT [D48P] are within error of each other in abundance fitness: -0.154 ± 0.044 for the first, -0.214 ± 0.065 for the second.

Variant AMEMGLACVVCRQMMVASGNQLVECQECHNLYHRDCHKPQVTDKEANDPRLVFYCARCT [W53F] has an abundance fitness of -0.045 ± 0.098.
